Measurements from patent CN113880948A.

Biological target: CA724抗原 (CA724)
Assay: biolayer interferometry type kinetics, antibody captured on AMQ biosensor, antigen in solution (diluted 10-fold)

Row | Kd [nM] | koff [s⁻¹] | kon [M⁻¹ s⁻¹] | Binder
1 | 18 | 0.00109 | 60700 | 抗CA724重组抗体 (recombinant anti-CA724 antibody made in Example 1, expressed in Expi293F cells) (antibody, mouse IgG1, kappa, V domains shown) VH: QVQLQQSDAELVKPGASVKISCKASGYTFTDHAIHWAKQKPEQGLEWIGYISPGNDDIKYNEKFKGKATLTADKSSSTAYMQLNSLTSEDSAVYFCKRSYYGHWGQGTTLTVSS VL: DIQMTQSPASLSVSVGETVTITCRASENIYSNLAWYQQKQGKSPQLLVYAATNLADGVPSRFSGSGSGTQYSLKINSLQSEDFGSYYCQHFWGTPYTFGGGTRLEIKG
2 | 16.4 | 0.000897 | 54700 | 抗CA724单克隆抗体 (anti-CA724 monoclonal antibody purified from the hybridoma of Example 1) (antibody, V domains shown) VH: QVQLQQSDAELVKPGASVKISCKASGYTFTDHAIHWAKQKPEQGLEWIGYISPGNDDIKYNEKFKGKATLTADKSSSTAYMQLNSLTSEDSAVYFCKRSYYGHWGQGTTLTVSS VL: DIQMTQSPASLSVSVGETVTITCRASENIYSNLAWYQQKQGKSPQLLVYAATNLADGVPSRFSGSGSGTQYSLKINSLQSEDFGSYYCQHFWGTPYTFGGGTRLEIK
